Test results reported in patent US20040171005A1, “Codon-optimised nucleic acid coding for apoaequorin and uses thereof” (priority 2001, published 2004).

Experiments:
HEK293 cells = assay: Aequorin luminescence (calcium flux) after Ionomycin stimulation of transiently transfected cells; type: cell-based; conditions: for Peak Relative Light Units (RLU) following Ionomycin Stimulation: HEK293 cells transiently transfected, 48 hours post transfection; for fold increase in RLU relative to wild type aequorin: number in parenthesis; for fold increase in luminescent output (RLU) with the codon optimised aequorin: text summary over 1 and 2 μM CaCl2, Ionomycin stimulation, versus wild type
Description: CHOK1 and Phoenix (HEK293 derived) cells were grown in Ham's F12 and DMEM respectively. The medium was supplemented with10% foetal calf serum, 2 mM glutamine, penicillin and streptomycin 100 μg/ml.
Cells were seeded in Costar 6 well plates at a density of 5×10^5 18-24 hours prior to transfection. On the day of transfection the cells were 85-90% confluent. Plasmids, cytaeqHA1(9aa)pcDNA3#2 and hucytaeqHA(9aa)pcDNA3#20, were transfected into the cells using Lipofectamine Plus reagents. A co-transfection with EGFP (Clontech) allowed transfection variation between wells to be ascertained. A modification to the standard protocol from Life Technologies was used. In summary, 2 μg of DNA (1 μg of each for co-transfections) diluted in 400 μl of HamsF12+12 μl lipofectamnine plus reagent was incubated for 15 minutes at room temperature. 8 μl of Lipofectamine reagent +400 μl of HamsF12 medium was also incubated for 15 minutes at room temperature. The two mixtures were combined and incubated for a further 15 minutes before being aspirated onto the cells containing 1.6 mls of Ham's F12 medium. The plates were incubated for 3 hours at 37° C. 5% CO2. The transfection reagents were replaced with Ham's F12 complete medium and the cells incubated for 24 hours. At 24 hours the cells were transferred to 96 well plates. 48 hours post transfection the 96 wells were rinsed in PBS and replaced with 50 μl of DMEM (without phenol red) containing 1% heat inactivated FCS and 2.5 μm hcp coelenterazine. The cells were incubated at 37° C. 5% CO2 for 3 hours. The wells were aspirated of the coelenterazine mix and replaced with 175 μl of PBS containing either 1 μM or 2 μM CaCl2. The plates were transferred to Tropix TR717 luminometer for stimulation. 2 μM of ionomycin (25 μl), a calcium ionophore, was injected into the wells and the reaction recorded over 60 seconds. 1:
Numbers in parenthesis represent the fold increase in RLU relative to wild type aequorin.

HEK 293 cells = assay: Immunoblotting of HA-tagged aequorin expression (3F10 antibody, pixel quantification); type: cell-based; conditions: western blot against HA epitope; HEK 293 lysates 48 hours post transfection; ImageQuant pixel quantification
Description: Expression of recombinant protein was verified by immuoblotting using Anti-HA-Peroxidase, High Affinity (3F10) monoclonal antibody (Roche). This antibody recognizes the HA peptide sequence […] derived from the […] hemagglutinin protein (Kolodziej &Young, Methods Enzymol. 194:508-511, […]). HEK 293 cells were transiently transfected with the codon optimised and the wild type aequorin constructs. Cell lysates were prepared 48 hours post transfection, proteins (130 μg) separated by SDS-PAGE electrophoresis, transferred to nylon membrane and stained with a 1:500 dilution of 3F10 antibody. Protein expression was quantitated using pixel quantification in ImageQuant software (Molecular Dynamics) and indicated a 8-fold increase in expression of cythuAEQ over cytAEQ.

B1: Wild type: Wild-type jellyfish apoaequorin gene SEQ ID NO: 2 with HA1 epitope in pcDNA3, used as control (nucleic acid, listed as Aequorea victoria)
DNA: ATGAAGCTTACATCAGACTTCGACAACCCAAGATGGATTGGACGACACAAGCATATGTTCAATTTCCTTGATGTCAACCACAATGGAAAAATCTCTCTTGACGAGATGGTCTACAAGGCATCTGATATTGTCATCAATAACCTTGGAGCAACACCTGAGCAAGCCAAACGACACAAAGATGCTGTAGAAGCCTTCTTCGGAGGAGCTGGAATGAAATATGGTGTGGAAACTGATTGGCCTGCATATATTGAAGGATGGAAAAAATTGGCTACTGATGAATTGGAGAAATACGCCAAAAACGAACCAACGCTCATCCGTATATGGGGTGATGCTTTGTTTGATATCGTTGACAAAGATCAAAATGGAGCCATTACACTGGATGAATGGAAAGCATACACCAAAGCTGCTGGTATCATCCAATCATCAGAAGATTGCGAGGAAACATTCAGAGTGTGCGATATTGATGAAAGTGGACAACTCGATGTTGATGAGATGACAAGACAACATTTAGGATTTTGGTACACCATGGATCCTGCTTGCGAAAAGCTCTACGGTGGAGCTGTCCCCTAA
modifications: HA1 epitope fused, in pcDNA3
For B1, the “Peak Relative Light Units (RLU) following Ionomycin Stimulation” value (“Peak Relative Light Units” below) (HEK293 cells; 1 μM CaCl2) was 944 RLU and the “Peak Relative Light Units” value (HEK293 cells; 2 μM CaCl2) was 734 RLU.

B2: Codon optimised: Codon-optimised (humanised) apoaequorin coding sequence SEQ ID NO: 3 with HA1 epitope, in pcDNA3 expression plasmid (nucleic acid)
DNA: ATGAAGCTGACCCCCGACTTCGACAACCCCAAGTGGATCGGCCGCCACAAGCACATGTTCAACTTCCTGGACGTGAACCACAACGGCCGCATCAGCCTGGACGAGATGGTGTACAAGGCCAGCGACATCGTGATCAACAACCTGGGCGCCACCCCCGAGCAGGCCAAGCGCCACAAGGACGCCGTGGAGGCCTTCTTCGGCGGCGCCGGCATGAAGTACGGCGTGGAGACGGAGTGGCCCGAGTACATCGAGGGCTGGAAGCGCCTGGCCTCCGAGGAACTGAAGCGCTACAGCAAGAACCAGATCACCCTGATCCGCCTGTGGGGCGACGCCCTGTTCGACATCATCGACAAGGACCAGAACGGCGCCATCTCCCTGGATGAGTGGAAGGCCTACACCAAGTCCGTCGGCATCATCCAGTCCTCCGAGGACTGCGAGGAGACGTTCCGCGTGTGCGACATCGACGAGAGCGGCCAGCTGGACGTGGACGAGATGACCCGCCAGCACCTGGGCTTCTGGTACACCATGGACCCCGCCTGCGAGAAGCTGTACGGCGGCGCCGTGCCCTAA
modifications: HA1 epitope fused, in pcDNA3; humanised apoaequorin
For B2, the “Peak Relative Light Units” value (HEK293 cells; 1 μM CaCl2) was 18008 RLU, the “fold increase in RLU relative to wild type aequorin” value (HEK293 cells; 1 μM CaCl2) was 19 fold and the “Peak Relative Light Units” value (HEK293 cells; 2 μM CaCl2) was 15561 RLU. For the same molecule, the “fold increase in RLU relative to wild type aequorin” value (HEK293 cells; 2 μM CaCl2) was 21 fold, the “fold increase in luminescent output (RLU) with the codon optimised aequorin” value (HEK293 cells; listed as codon optimised aequorin) was 19-21 fold and the “fold increase in luminescent output (RLU) with the codon optimised aequorin” value (HEK293 cells; listed as codon-optimised sequence) was greater than 20 fold. For the same molecule, the “fold increase in expression over non-humanised (wild type) aequorin” value (HEK 293 cells) was roughly 8 fold.
